According to the supplement of paper PMC12636428:

System: Saccharomyces cerevisiae
Assay: transcriptional activation domain activity (GFP:mCherry ratio, weighted mean of sorted bins, harmonized to initial dataset scale) (arbitrary fluorescence ratio units); higher = stronger transcriptional activation
Settings: beta-estradiol 1 µM; induction time 4 h
Method: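 53-aa protein tiles (fungal proteins plus yeast TF control tiles) fused C-terminally to a DBD-estrogen-binding domain-mCherry synthetic TF, integrated in S. cerevisiae (URA3 locus) with a GFP reporter. Cells were induced with 1 uM beta-estradiol for 4 h at 30 C, FACS-sorted into 8 bins by GFP:mCherry ratio and barcodes sequenced. Activity is the read-weighted mean bin fluorescence (GFP:mCherry), averaged over barcodes (median 12); tiles under 50 reads were discarded. New active-learning values were harmonized by linear fit onto the scale of the initial (Hummel et al.) dataset. The assay saturates at low and high signal.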

First: NLSLQEIVGILLRANAFRPMCKNCEHLRDKVGAHIVDCACFEYWLQLGLFIAP
Second: QGASAGVSPIFKKEKYTLKWKRVKEFNLIFVAVYQSLLHLGWIDRLLENISTI
The “transcriptional activation domain activity” value of the first is lower: 47000 for the first, 67900 for the second.

First: MNLLFITFFLLVMWVVWFICVVVPFFLLLLLCFFSFLFFRLFGAGWLGWVGNF
Second: RNGDKDSGHSRHKDRRHEHRSERRRYSDEGEEDRHRSHRSSHRSSRRRSRSRS
The “transcriptional activation domain activity” value of the first is higher: 42500 for the first, 31900 for the second.

Compared with “MLFFFLYIFLCGCFPFWNMSIFFSVIPPFFSFLPLMLLFFFFFGMFGQRINIF”, “MASEQVEEVTKKVADVAIEAPAAAPAKAPKAPKAPKAKKAKKEAAEGSSPLEL” is lower in “transcriptional activation domain activity” value: 36300 for the first, 13700 for the second.

First: DEPFKCTQSRCSIILPRDLMAVHFSYRRRTLKLIRSCPITKCSFRIRLFRPQS
Second: PAEVKLIWTRPVTLTKVIFVFVRYSIALCQVTAVYVLLIVRVYTLWDHRRAIL
The “transcriptional activation domain activity” value of the first is lower: 69700 for the first, 70300 for the second.

First: RQRQQNGRAPRAPRAEKPTDGFEVKEGRGERRGRGEGRGEGRGRGRGGRGRGR
Second: WLVKVYRLGPFSRDKRYGFAKLLGLKLNYDVKQVKQKPSFQLSMALALLNKCT
The “transcriptional activation domain activity” value of the first is lower: 13000 for the first, 64500 for the second.

Compared with “MLYVRCVISYIHIYNIFIHVTVSVHPEWWAFVSLTCFTLHVYLLHFLSAVARC”, “MSIEKKFDDDSPIDIEPSRSYDLDTRRRAALAEIDNASFSRFHVKTVIVAGIG” is lower in “transcriptional activation domain activity” value: 67000 for the first, 64400 for the second.

Going from “KKERKKEEKEEKGEKVKGKGERYVSDQVEEERERRRKRRNAKRQEREEEREKR” to “ANHQVYVDWWYTWCLTYFMETHRDVCIVLKKSLKWIPVAGWGMQFFKFIFLAR”, the “transcriptional activation domain activity” value falls from 42900 to 39400.

First: AILDLAFYIRWQNNNYHLAPSIPLSKMYSNSLLVVLNARIKIVGGRNEYKTNS
Second: EDTVHSVRVKAHRMKKSESGETGWAELGVGVLRLKTHKETASRRMLLRNSGNG
The “transcriptional activation domain activity” value of the first is lower: 31900 for the first, 58000 for the second.

First: GLLYILFCYQMNLKTHSLKVIALAEESVRLVHDRQSKRLWLPSITWKKWFRTG
Second: GGSGASPPPPDNRPPEERYAEQLRQLNDMGFYDFDRNVAALRRSGGSVQGAIE
The “transcriptional activation domain activity” value of the first is higher: 74800 for the first, 29100 for the second.

Going from “GGTASPPPPPDNRPPEERYAEQLRQLNDMGFFDFDRNVEALRRSGGSVQGAIE” to “NLDFDFALPQTATAPDAKTVLPIPELDDAVVESFFSSSTDSTPMFEYENLEDN”, the “transcriptional activation domain activity” value rises from 28300 to 91700.

Compared with “PPILVWMRYNAFFILYPLGAGSECLLTFFSLDEAHAWWPHYALLLKIILLIYI”, “PTQEVLRFCKRELMHKLWNLLMDDDFLHAYMHGIVVCCGDGVLRRLFPRIFTY” is lower in “transcriptional activation domain activity” value: 73800 for the first, 44400 for the second.

First: MLILLYLSLLPILYFCTDGLIKDTLLYLHACGLIVWWHCPSSTGDMYGLRHFW
Second: RKKSALEEEERKEKENDELEKKGKRKEEKEEKRRRGKGEKKGKEIRKEKEEKE
The “transcriptional activation domain activity” value of the first is higher: 55800 for the first, 25300 for the second.

Compared with “ESDAGEGDKLSKKQKAESGKAVKPEATEGADKKDKKKDKKEKKKDKEAPAKAD”, “MSSNFFGASNNAGQGSGTGASAPLFGAPKPADGGAAPAVGGLFGAKPAASGTG” is higher in “transcriptional activation domain activity” value: under 6570 for the first, 27300 for the second.

Going from “AKSAQRRADEPGVMSLGELAVLWVKRARHLGQSLLRVVLVSYAVDLPANCVAL” to “LILNCYWIVLVAFTFNMEVEYCKIVSVVGKLSSKFLGRVQVFLLLFMLMLFLV”, the “transcriptional activation domain activity” value rises from 30100 to 50600.

Going from “MFFCYLTVILSMDAFYYYQSHLNWTSTQLYVTWFNACFRNGLIRIIYFVFWWL” to “MSSSAASGPMGESSKRKAGSEAVAGSSSSSSISRDGKKAKLKPQDEATATGAA”, the “transcriptional activation domain activity” value falls from 76300 to 31400.

Compared with “EIESVVMLYVSGRLLRIIEVGLVEGRPDVQAIVQALVARLICVTVSATAKWAR”, “LVLVAILGIVIPLDGFFGYLLTSLAIIWCSYSSSSMFTVVGRMSSMKWLVAYP” is higher in “transcriptional activation domain activity” value: 36000 for the first, 57000 for the second.

Compared with “IEDSRRVDRGDEDKGREDHTRHRRRGSTDTGRRDERSHRDRRRSRSRSPASRR”, “ELKEGDPKVCAGKAVNEKGEVVDKDGNVIGKVDVVPGEAAFEAMKALKERLGE” is lower in “transcriptional activation domain activity” value: 21900 for the first, under 6570 for the second.

First: EKLVMNILEAVRLFHSIFDGLIAKALDEFAHLSRQARTMLSFFVIHIHLGVLH
Second: DRPRRDRADDKEATTPRSDAGSHKSRRRSRSRDDERRHSRRHRGGDGDFYRGG
The “transcriptional activation domain activity” value of the first is higher: 71300 for the first, 17700 for the second.

Compared with “PSPVLCFRQLCFLVYLIFFNFLLLFCLFAKAEGGIPSCPLQPLDSLYFSLQGF”, “EKRYGPMLDPKNPLHYMWQLVYNILSLKLHIMLLFRYASNMHRIMPERLRQTV” is higher in “transcriptional activation domain activity” value: 49400 for the first, 58300 for the second.

Compared with “MKRVLHVRNVARVNSGGKVRSVSALVVVGNGQGAAGYGEGRAVDAAAAVQKAT”, “LYFMPVRWYTYHKIGFHYFLADLCYFVNFLMVLCIWFFPNSKRLFISTFCLAF” is higher in “transcriptional activation domain activity” value: 54500 for the first, 72000 for the second.

First: ALCSIAGLACFILFCFLRVRWPAMYAPRLNMKKHAPQPLPNSFLGWIVPVLRT
Second: LLFFFSFFFVCFKYFPPFFFSSFLSFSFYCLSILTYPIHYPPPVFGISGSFFV
The “transcriptional activation domain activity” value of the first is higher: 67400 for the first, 51800 for the second.

Going from “KGGSEKSGNAGKKEDAGKKEAEKKKVEAGKNQGKGKQNTGSGGNKKAAKKGKK” to “FLVLRYGALIGHVPLFYNVFADPCKTPHLIHILAFYHYIFVFVLTALTTVLLV”, the “transcriptional activation domain activity” value rises from 18400 to 49400.

Compared with “MISIPFPFHFIFKYVWWYYHVLYCLLACLLACCSCTYMFYLPVLLMLLLLFGC”, “DGSIMEINGIPLSMLGETGSVKFQSLFANTSNSNDYNNNRTLLDASNDISIPS” is higher in “transcriptional activation domain activity” value: 41900 for the first, 61900 for the second.

First: KQPKKKAAAKKAQAPKKGKKRAADDDEEEEGEEDVKPKARGKGKGKAATGKGR
Second: LRLIWVYLYRCHESGSTVTSKLESLLKHFFPPNRLIVVPQEERLEPFVCIVHF
The “transcriptional activation domain activity” value of the first is lower: 42300 for the first, 53100 for the second.

Going from “MYISLFITYLYTYILELCFDFLTIFIIYFHFFSASCMLHSISPLLFICFSFFQ” to “PKKEEPKRRSASRKRGSIFGGSLFGKKEEAKKEEEKPVEAAAETKAAETEAPA”, the “transcriptional activation domain activity” value falls from 57700 to 30700.

First: LLRAYGRCLAPFPELVTQAYTWFRSWGTSEFRPLTVALLLVTYMQRSPEIKAP
Second: VYIFLTFFIATWWPLCLVNLFGWMLLYLFRGVFPEAIMLIFNVLSRVVTIHRI
The “transcriptional activation domain activity” value of the first is higher: 70700 for the first, 42000 for the second.

First: HSLISWLLKSLENGAGAIVIRKLCSALVTHFVRFSHLWPLCVRSLLYCLHANR
Second: RLHCHVVCPLSHSLLTQVYLFLFFFLSNLLITSLSLPVHFFPFILCLCCIAHF
The “transcriptional activation domain activity” value of the first is higher: 71400 for the first, 58000 for the second.

First: MIIVLLVKVVVFNLMCKCLMVNVGRCFGEIVSCTFYFWKHILFYYLRSVVTRL
Second: SDDGGSSSEIIRVLGGPSIGDIRSRLIRLMPSAPPNSPLDAICRLLAYRLPVQ
The “transcriptional activation domain activity” value of the first is higher: 37700 for the first, 37600 for the second.

Going from “GEAGAEQGEHGARRARTRGAGCVRGRGREVGEGAGARRRVCGRRCEREARAHN” to “AVVILGDLHPRGYNSNWFLMYYTGWLTFIFFITLLWALANLAWLRYTARVLPC”, the “transcriptional activation domain activity” value rises from 23400 to 29300.

Going from “ANPLSDSASFLSEENEDDAFGALNYNSLDATTMSAFDNNVDPFNILKSSPAQD” to “VSVRQASDGVGCLLEVMAHSRSVNAWTRVLKQLRLAQCVLLNIQQSLSQVWSM”, the “transcriptional activation domain activity” value rises from 66600 to 77300.

Compared with “QESEAVTEKCKNRLDITSEELERVLLQKEGESLKDNAVQQRQGAGGKRAIGKA”, “YKTLDSCCSQLEGYLSRFALKLSHTHLLHLQRLLTLLHAFIAFTKEWQHNARK” is higher in “transcriptional activation domain activity” value: 23500 for the first, 59400 for the second.

Compared with “EDAEATPAAAVEAEDDAMVVDSEEPKKKSKKDKKEKKDKKRKAAETTEAETAN”, “MDLYFMDLFIVILWCGFIVYLVYFLFFYYESGLVYLYIINSMGLCCESGVLFV” is higher in “transcriptional activation domain activity” value: 16400 for the first, 67500 for the second.

Going from “PAEGEAAAAPAAEESAAPAARTGSSSSSSSNEEKKKKAAKSKSRSVSRGKRTS” to “VLLITLILSSRINITPVVHVNPSFSTVHLIIIPHFLCNIITLLIYFIVCWGST”, the “transcriptional activation domain activity” value rises from 23200 to 56800.

First: MFCLRSWIPILFFLLRTNASPIYLILFISATYFLNRPCVYCSLLLFILVVALF
Second: DSSSSNDSDSGADDGAARPVRRSRARRKHKHNHEHDGNGGEGDAKDKARKPSP
The “transcriptional activation domain activity” value of the first is higher: 50800 for the first, 28400 for the second.

Compared with “DLFMTLGWISGFMAELIAVQGACSLGWHPGCTNFNWLMAWLFFLFLSWGAGFF”, “AAAPAAANDGFHEVHHNRGGRGRGGHQGEGRGGYRGRGGPRGEFRGRGRGRGR” is lower in “transcriptional activation domain activity” value: 66400 for the first, 42000 for the second.

Going from “RDNESYSATNNNNLLRPDDNDYNNEALSDIDRSFEDIINGRKLKLKKSRRRSS” to “SQWRGVVALKLQIVKTLMKIRMVFPGLMTGLSLEYFSVIWTELNNALPIYLNF”, the “transcriptional activation domain activity” value rises from 15300 to 48000.

First: SWRDPSYIYSKIGLCSTASLFLGLSFLNQPVSLQGVQNQIFSFFMLLVIQVFM
Second: FFHVTIRVASQACGIGFGILGFRNTNLFLAFLILGAEGYFSLVLCAFRFLISW
The “transcriptional activation domain activity” value of the first is higher: 60200 for the first, 48000 for the second.

Going from “MSWIVWSGKHIHMSCNFIFIICPNNMKYMLSVFWRWFYKRSVIWKVWIRLFFI” to “GFVDVTEQVCGWPMGPWSDDEKLKELGRWNLRNWEEGMEGWILMLYTRFLGWS”, the “transcriptional activation domain activity” value rises from 47600 to 69700.

First: LIVSWSGNYVVQHHSTRINLIDFMDSNYISHLCVYLGFSIADVCYQLTMLWMI
Second: MIIVRSIFYCLGLIALLEFMLIRVASAFAISSLLTNLAYNKPFFLTYLSCATH
The “transcriptional activation domain activity” value of the first is higher: 77700 for the first, 67100 for the second.

In the case of “VVNLLQSLHFGGLLNHKKRHYFWIIFGAIFFWEWIPQFPFPLLTAFSVICLVD”, the “transcriptional activation domain activity” value is reported as 47400.
